The values below are quoted from earlier work in PMC7519539.

The data set concerns the target RNA polymerase core (E) (Escherichia coli) (UniProt P0A7Z4).

Chain of sigma38 (P13445 whole entry): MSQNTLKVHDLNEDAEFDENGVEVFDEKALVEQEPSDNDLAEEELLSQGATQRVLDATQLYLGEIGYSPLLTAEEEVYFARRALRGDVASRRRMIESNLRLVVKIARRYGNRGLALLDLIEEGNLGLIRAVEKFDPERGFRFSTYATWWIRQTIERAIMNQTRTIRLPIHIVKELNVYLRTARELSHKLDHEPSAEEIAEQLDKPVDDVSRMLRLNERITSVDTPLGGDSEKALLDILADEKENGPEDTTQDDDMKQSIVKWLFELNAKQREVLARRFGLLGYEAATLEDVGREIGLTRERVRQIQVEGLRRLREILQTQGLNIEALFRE

The Kd is a measure of binding affinity in units of concentration. Take sigma38 (from UniProt P13445): the Kd is 4.26 nM.
